Laboratory results from article PMC6512903.

How the values were obtained:
Test in all cases: SPR
[1] = biological target: FcRn (human) (UniProt P55899)
[2] = biological target: FcγRIIb/c (human) (UniProt P31994)
[3] = biological target: FcγRIIIb (human) (UniProt O75015)
[4] = biological target: FcγRIa (human) (UniProt P12314)
[5] = biological target: FcγRIIIa (F) (human) (UniProt P08637)
[6] = biological target: FcγRIIIa (V) (human) (UniProt P08637)

Sequence of UniProt P12314 (P12314 16-374): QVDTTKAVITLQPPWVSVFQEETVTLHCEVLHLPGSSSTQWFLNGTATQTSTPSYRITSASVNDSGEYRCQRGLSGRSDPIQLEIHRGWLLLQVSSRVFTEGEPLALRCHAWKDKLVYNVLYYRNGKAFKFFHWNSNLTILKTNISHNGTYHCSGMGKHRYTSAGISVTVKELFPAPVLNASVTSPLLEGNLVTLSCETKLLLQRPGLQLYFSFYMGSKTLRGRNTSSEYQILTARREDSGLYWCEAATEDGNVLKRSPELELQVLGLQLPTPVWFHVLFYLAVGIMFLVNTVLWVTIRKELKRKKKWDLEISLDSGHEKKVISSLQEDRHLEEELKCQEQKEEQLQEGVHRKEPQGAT
Sequence of UniProt P31994 (P31994 43-310): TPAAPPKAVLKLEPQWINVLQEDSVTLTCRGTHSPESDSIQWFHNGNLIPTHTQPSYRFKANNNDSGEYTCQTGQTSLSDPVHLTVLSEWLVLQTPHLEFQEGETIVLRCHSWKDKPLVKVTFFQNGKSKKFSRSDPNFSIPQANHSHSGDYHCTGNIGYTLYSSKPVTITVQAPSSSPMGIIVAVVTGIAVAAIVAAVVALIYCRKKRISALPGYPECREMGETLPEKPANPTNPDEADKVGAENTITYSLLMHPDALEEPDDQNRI
Sequence of UniProt O75015 (O75015 17-200): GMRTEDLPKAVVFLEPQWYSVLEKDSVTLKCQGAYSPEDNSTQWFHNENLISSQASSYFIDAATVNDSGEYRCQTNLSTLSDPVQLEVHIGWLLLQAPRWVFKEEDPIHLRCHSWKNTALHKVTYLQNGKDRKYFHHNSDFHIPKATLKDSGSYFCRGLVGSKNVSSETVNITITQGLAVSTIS

| relative binding activity (KD ratio to a reference), mean of batches [1] [%] | relative binding activity (KD ratio to a reference), mean of batches [2] [%] | relative binding activity (KD ratio to a reference), mean of batches [3] [%] | relative binding activity (KD ratio to a reference), mean of batches [4] [%] | relative binding activity (KD ratio to a reference), mean of batches [5] [%] | relative binding activity (KD ratio to a reference), mean of batches [6] [%] | Substance |
| --- | --- | --- | --- | --- | --- | --- |
| 131 | 99 |  |  |  |  | CN-rituximab (MabThera, sourced in China but manufactured in Europe) (antibody) |
| 121 |  | 90 | 118 |  |  | EU-rituximab (MabThera, sourced and manufactured in Europe) (antibody) |
| 113 | 90 |  | 103 | 98 | 95 | HLX01 (antibody) |
